Data on 1 molecule can be found in publication PMC5588548, “Suramin Inhibits Osteoarthritic Cartilage Degradation by Increasing Extracellular Levels of Chondroprotective Tissue Inhibitor of Metalloproteinases 3” (Molecular Pharmacology, 2017).

This data set has as its system HTB94 chondrosarcoma cells. Format: cell-based. How it is done: Cells (HTB94 chondrosarcoma cells, primary porcine chondrocytes, or human osteoarthritic chondrocytes) were plated overnight (6 × 10^5 cells per well of a 12-well plate) in DMEM containing 10% FCS and washed three times in serum-free DMEM.
To evaluate endocytosis of exogenously added TIMP-3, cells were incubated with recombinant TIMP-3 (1 nM in 1.5 ml DMEM with 0.1% FCS) for 0–24 hours. Conditioned media were concentrated by precipitation with trichloroacetic acid [5% (v/v), 4°C, 18 hours]. After centrifugation (13,000 rpm, 4°C, 10 minutes), protein-containing pellets were resuspended in SDS sample buffer (30 µl), electrophoresed (7 µl) on a 10% polyacrylamide gel, and immunoblotted onto polyvinylidene fluoride. After blocking in 5% (m/v) BSA in Tris-buffered saline, TIMP-3 levels were analyzed using an M2 anti-FLAG antibody (Sigma-Aldrich), an alkaline phosphatase–conjugated anti-mouse secondary antibody (Promega, Southampton, UK), and a Western Blue stabilized substrate for alkaline phosphatase (Promega). Immunoblots were analyzed by densitometry using Phoretix 1D densitometry software (TotalLab, Newcastle-upon-Tyne, UK), and TIMP-3 remaining in the medium (mean ± S.D., n = 3) was calculated relative to pixel volume at a t of 0 hours (defined as 100%).

B1: TIMP-3: C-terminally FLAG-tagged human TIMP-3 expressed in human embryonic kidney 293 cells; endogenous metalloproteinase inhibitor (protein, UniProt P35625 24-211, looked up)
Metalloproteinase inhibitor 3: CTCSPSHPQDAFCNSDIVIRAKVVGKKLVKEGPFGTLVYTIKQMKMYRGFTKMPHVQYIHTEASESLCGLKLEVNKYQYLLTGRVYDGKMYTGLCNFVERWDQLTLSQRKGLNYRYHLGCNCKIKSCYYLPCFVTSKNECLWTDMLSNFGYPGYQSKHYACIRQKGGYCSWYRGWAPPDKSIINATDP
modifications: C-terminal FLAG tag
In the case of B1, the “half-life of TIMP-3 uptake from the medium” value turned out to be 4.0 ± 1.3 h.
